Data taken from the domain aggregation screens of Martell et al. (2025).

Assay: soluble fraction after stress (log2 fold change); higher = more stays soluble; pooled small domains, quantitative proteomics
Settings: stress: pH 4
How it was run: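 How much of each domain stays soluble after acid stress, expressed as a fold change, is used to gauge aggregation propensity. Pooled custom libraries of small domains underwent pH 4 stress before high-throughput quantitative proteomics. A higher log2 value means more of the domain stayed soluble.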

| Sequence | soluble fraction (log2) |
| --- | --- |
| HMETGLSNYEFKRIREQAEALLSDGQVRRINDLVDSIKNENAEKVIRVIRFLIDTEELILEDDRVSAKKS | -1.42 |
| HMETIVGIDPDSKKKIVLKKGIKGRPDYLSFNKKNYSLPSELKEKNVSLEQALEIINDKKSNKKKIK | 0.201 |
| HMETLSKVGSTGSEVRQIQTKLKNWGYFSDKVDGIYGEKTRAAVVWFQKKNGLTADGIAGPATLKAMGIYT | ≥ 0.43 |
| HMETLSVRERMTSIISLLNKHEDIEFSKLFNISEGRLGVVVTFLALLELVKESLVDVIQNQPMSKLYIGKK | -0.376 |
| HMETLTPQEHKVLLLAVKGRTNGEIASELGIAQNTVKNHLAHIYAKMGVGNRTELASEYLRRIH | 0.0578 |
| HMETTEELISKTVPISYADMAALTGILDGVKSARGDIQVDDRTSTIIIHDIQSSIDEMMRLIKILD | -1.13 |
| HMETTMVEIKAEFTIRNRLDIPAMMEKAGYKDRGEFLSVLEKITGNYNWDRDVKKGDTFMVPSKLA | -0.335 |
| HMETVPMIDLRGMTQEQAEKAIVGLGLTVGTVDHSSSDMPAGQVWFQSVEPKDEVAPGTKVNIIISTGS | -0.128 |
| HMETYNLDVGDSAVLQYQNVSRISVGNPDVLDAIPLDKSQILLTGKATGGAALIVWDSKGMHMEKVMVHPA | -0.152 |
| HMETYTVSSKDGYANVRNEATVNSDLIAELKNGTLVTKFKEKGEWYYIEFEREDGTPFDYGYIHKSQLK | -0.224 |
| HMEVALEVPELRGLSMKQATNTLMASGFEVQKVGSGTIYAQFPLPGERLRTGYAVTIRGKTRDLG | 0.047 |
| HMEVAPEKVLEALNELPEIYKIVLNLYAVENMSHKEIAKKLGISLGSSKSRLSRGRVMLNTLLNR | -0.866 |
| HMEVDWLEVEKVIVSSSYSWMENSPKVKLLQEYIGVTADGIYGLGTWGAHRTHAVDLGFINLSYPIP | -1.69 |
| HMEVEADEFQQLLRSGEYVQALDRARANQDIGLRQQQIVQIARHQAASGIQAGAMGSLASLYQF | -0.461 |
| HMEVHLMPGTVLLREYESNEYRVTVTPEGFYDLNGKVFKSLSAVARHITGVNWSGPRFFGVEP | -0.604 |
| HMEVLSYYGSRGQEVVNIQTKLKQWGYYKGNIDGIFGNLTYQAVREFQRKNGLKVDGIVGPETLAALGLPT | -0.479 |
| HMEVPQVETEKVEAKLKEAEVLLVKVTDSSLKANATETLAGLRNNLTLQTMDNNGIMAEAEKLLALLRES | -0.315 |
| HMEVPTGNHIRRWRKSLDITQVKLSSLSGVAQSIIAKIENETVDPRVSTLRKLVEALSRFENP | -0.358 |
| HMEVQVGKQVRAFRETLGMTVQQFAERTGFSAALLAQIENRMVSPSLGTLVKIANTFGTTVSSFIG | -0.38 |
| HMEVSTDADFEAVGIRAELIPILQKLGFTTVAQLKEVKATKLFNDIPGMRKKLKLDAVQNPTLQEIEGWLK | 0.0606 |
| HMEVTLEEKLSYVEEYAKVHSHFSFRDLLKKQASKTQIVVTFLAILELMKTGKIQITQEHIFDDIVITAK | -0.649 |
| HMEVTYQETLRVLYNAIDKLPPQTKEIILIGLDGKDNNEIAATLNISVNTVKTLKKNAYKTLRELLVD | -0.601 |
| HMEWNPEKQHLLENYITNYSRQLNDTGLFYKNLDWNYIFNLVGVDDQEFLMLKIDEIYDESINVY | -1.63 |
| HMEWNREQLEQIVLQHIRKHGFITRATYTELTGRLKNSALADLKSFAAEGIIKRVGRGNQMHFIVPL | 0.221 |
| HMEWTDHLAEELRSLAVEGEHLEIIANKLGISPGSARAKLVNLNIYNDYQLAHIERLEADTLQAK | -0.967 |
| HMEYFDDEELDRYKGRTSDSFTDDEAEEFREVMMTMHPEEVKAWNRSLILRDVAMPDQIKDDYIMLAG | -2.41 |
| HMEYKYNPADYPYPLNEDIEKVYSAYREKSIGKLEAAVQNLYYTLKQARRDNILSDVKVNEMQQYFLALRN | 0.0584 |
| HMEYNLTLEELNRDLYIRGEIWNVGDVVKTTDGDEGTIIRKGTNYVVFEDLRRVWLHNLEEVK | -1.64 |

| Sequence | soluble fraction (log2) |
| --- | --- |
| HMEYREFEAMTIRAIATLPPTQGHVIMLSRFEGLDNKEIALRLNLSLQTVKNTLTQGLKELKNKMRKLP | -0.119 |
| HMEYSAAYDRELESIFNLTERGKWEEAEAEVGLLLQQYPEDKTLLRISEWVATQKTILREQAIEDRIRS | -0.48 |
| HMEYSYKLIDLLVDRFSEEGVDPEEAREYINLFHRFSQGLDPDKRDITKYSWDELYRTVNDKKDS | -0.344 |
| HMEYTVNHYPEKHRFEVVEDGLTAYVEYRLRGDALDIIHTIVPKNLEGRGIAATLVETAYKYAKEQ | -1.35 |
| HMFAAIFADDSGFTTRSKRFGPYVEEIAADWQAVKQLSDEDAKQALVPLVKKIELALSTLQQFVSSV | -0.405 |
| HMFAATGTVNTEGSSLRLRAEASTSSSVLKQLSHGTQVDVLSGLVDGWYQVSYKGTTGYVSGEYLTVTE | -0.000126 |
| HMFADLNPDENYGQVYIRTNTIDNLYQTLLDNKTRIHPNGLLELKPWGQKEFSILDPDKNLLTFGES | -0.317 |
| HMFAERLKELRKMRRFSQHALAERLGISQQAVGKWETGKSTPDPATLREIADIFEVSVDLLLGR | 0.124 |
| HMFDDEELDRFAGVPADAYLPADEDEFREVFYTMRPGEVVEWVRSLELRHIEIPNGIKDEIFMMIR | -3.37 |
| HMFDEDKLIISIGSKVRIIREPYFGTIGKVVELPPELVKMDTEAMLRVAIIKLDDGEKVTIPRANLEVILS | -0.87 |
| HMFDEVKDAARRLAALLDQAGGTLTLNDKSAPEEVAALTGMSKKVFKRALGHLMSRSEVVVADGRITKKD | -0.196 |
| HMFDGRSDAEKTLDLIKTAIDNILKGGAIQEYKIGTRTAKKYDMAELQVLKGEYAAMVAREKQAETMA | -0.481 |
| HMFDGVAAGKPAILDALEDAGGFLPLNSKSSVEEIQASFSFSKRVFKQLIGMLYKERKIVITDDGIRLAD | -0.654 |
| HMFDGYQWLKRDIIRGVYQPEEKLRMSLLTNRYGLGVGPLREALSQLVAEHLVTVVSQKGYRVAPM | -0.0817 |
| HMFDKNKPVVVEGENAEVALKKVSKYFNVPTEKLDYTLLGQKSAGLLGIGSKVYQFKVWLKREIP | ≥ 0.43 |
| HMFDLENIRLTLARRLNVAAHLRPKYVAGFTLLLKQNFPEQNAEDLLNRLEHNQWLKVNQREIEYSPRLLM | -1.23 |
| HMFDPAKQMQRIRKYAGMNRKEFSEWLNIPYRTMTDWELGNRTMPVYLLELIVYKVNHEIANA | -0.349 |
| HMFDREKFIKLGQEFARVAFENVNKRATDRALKTAAKHYGLPSADELLARLGSSEIAARDVVAELYPNL | -0.28 |
| HMFDSYDIYDEAGNTVNTVKGKLSWGHLLEIYDRFDNHIGTVQERVLTFLPKFLMYINGQEIGEIR | -0.334 |
| HMFDVNSMIAANIVAILKKQNRKQIDLAGALQTNKQTISKMLNGSRMINAIELKRIAEFLGVKMEELTKL | 0.0597 |
| HMFDVRWEQGYALAAAYAQEYGNLDVPRDYKTADGKKLGRWIQSQEQAYEQKKLSEEQISRLEMIGMQWG | 0.0698 |
| HMFEDEPSEREIRISTLLAAFLKQEDGGTAVSRERFLKENSDVAEDLQILLEMADMIQEMAGP | -0.744 |
| HMFEKIDINFADIHQLKGLPLNSEQINSIIEYRNQNGFIENIYDLKNVNGISIDKVHELKSYIFIIDV | -1.96 |
| HMFENPRALLEMMISLGNEQGLINMARDIVSAGEFRRLELAAGGDRRKLARMLIDHLVEVAPRLP | -0.585 |
| HMFEQFEVENLQELQQEWGDKFNHNLEMARRAFMNFATPEAVKVLEETGMGNHPELLKVFARIGEVLAED | -1.22 |
| HMFERINLIGVNGTTKKRSALVRLLDGEIVKIGVGDSLNGGQVVDISPATLTYLKSGKSIMLTLPK | 0.22 |
| HMFGQRLRLARKRAGLSMQALAQRMSPPVTAQAISKYEADRMMPSSAVLVGLGKALGVSLDFLMGGQ | 0.068 |
